This data set is described as follows: soluble fraction after stress (log2 fold change); higher = more stays soluble; pooled small domains, quantitative proteomics. Conditions: stress: 75 degC.

Bounds are passed on as bounds.
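Note: 20 min heating vs room temperature control held 20 min.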

Take “HMNQIATSTQAIITTLSFLNTSSIFKLPVGDTASRPTGVSPGTLRFNSQEDSAEIYKADDGTGSAGWTEVA”: the “soluble fraction (log2)” value was -0.296. Take “HMNQIDEATAATITTLNFLNTNSEFKIPVGDTATRPGTPAIGMMRFNSENDKAEIYVADFDGDGNPGWINL”: the “soluble fraction (log2)” value is -0.0556. The same measure for “HMNQILDFTREVKNLPEQDKIKIVEALWSIIYSNKDADIYETNLMRRLAGLLYIDNKTMGDIKEKIKQNL”: -0.906. The same measure for “HMNQNHFLDSVVEFAKDEASRAFFQKAVKKLGEGLVEEAMGEVKMREADGSVNSRAPYFIALLENWMENR”: -0.0208; for “HMNQNIYVPKLEGLQIEEASSILKSKGLNIEITDSIFRKDAVPGAIIEQTPKPNSRVKTGRNIYVSIYSK”: 0.385.

Consider “HMNQSEMIGSRLKEERLQQKLTLKQLSEKVGLSIGYLSQVERGYGTLSLSALKKLSSALGLEMSTFFD”, for which the “soluble fraction (log2)” value was -2.43. Regarding “HMNQTGQYENAAKRFNQLITIDSSDKRAYLQLGISNYNLGNKEKADSLFNIIRNSKDKLLIEELDNFLT”, the “soluble fraction (log2)” value was -0.102. The result for “HMNQYALTDREKNVLGLLVDGLSYKMIADKENISFHTVNAHVRKIYEKLHVHSLAEAVSKALKENL” reads -2.07.

On to “HMNQYRKLDGDVQNQIIYILSEYPKLPATIVYQRLLDTNTIVKKDVSLSTVNRFVQKYKDSKGIT”, for which the “soluble fraction (log2)” value was -1.19.

In the case of “HMNREDYIKAIFKIAEREGEASNQRIADSLGVSRASASEMVKKLIQEGFVVAEGRQLSLSAEGERIA”, the “soluble fraction (log2)” value is -0.185.

On to “HMNREEKKALTRRQIIDVATRLFRQHGIHNTDLKTIATEAGVSVVTFYKYFDSKEALIGTIAAEQ”, for which the “soluble fraction (log2)” value is -0.804. The result for “HMNRNHVFDSNGPDLRLRGTAQQLFEKYLQLGRDATSGGDRVMAEGYFQHAEHYFRILNAMNQAAMQH” reads -1.15. For “HMNRPYETLFTGLTTDEASAIVGKLEEYGAADYKIEGDTIKVPAAQEPDLKAKLLLDGYPKS”, the “soluble fraction (log2)” value stood at 0.231. The same measure for “HMNRTEYMAALRRALSVLPEEERASALRYYEEYFDDAGPENEEKVIADLGAPEKVAGQILADYRE”: 0.0934; for “HMNSDQMKEHLDNLVDMAKKNDNTLIDTEIVNYFVGKPDIELNTDMMTKIFDYLDEHHVAVLS”: 0.146; for “HMNSEFPFNGGRIVDNVPANRLQIFFDEKPDADVRTRLKQNGFRWAPNSGAWQSYRHGYTLDWARREFNA”: -0.136. The result for “HMNSEPKTKLQEIAQERGLAAPVYETTHTGPDHDRIFSASVTVGDVVAAGEARSRKGAESEAAIAAIKALG” reads 0.195. The same measure for “HMNSFGWESLIDKEGIADTDLHPSGWVRIDDRRIFVVSEGDFIDKGSGVTVLSVDGNRVVVRELI”: -1.38; for “HMNSHLEEGRHGLQIGDPGIVRARIESDPEGETDMPVVVIDGRNISWNEFGRMVATYTGFQFKLEM”: -0.629. On to “HMNSHQNELDNALTEAHTASRRLLEGTDEYLDLSSQPAYIRRLQHLLAQKYNLGSLSSGVEPNRHIRLLQ”, for which the “soluble fraction (log2)” value was -0.265. The same measure for “HMNSIDIENELVKIIEKNGQPMSFDDLVFKLDSLYSTRYKFAKGYIRTIILNSNRIASIGKTSTYSLYKWN”: -3.12; for “HMNSKKETLLSYLYNHSTWSSRNDLSNFLNVSTRQVTNYINEINKNETIVLSSNKGYKINPKFIGKN”: -1.61. The same measure for “HMNSKMTYSDLIGNIEQGNVSSVELASDGKSATVTLTDNSQKQVNIPSLDSFVTYVQDHIKAGTLSVEE”: 0.344; for “HMNSKSDDELLSKTTSLLIHAAKIDENYTDKEKEIIKKTLIQLGVKESKADQIMLTAEINEE”: at least 1.04. The same measure for “HMNSKYILLQVSDIPKTSLVLERQFGVTEYSVQDEHTLRIYDTSLDMAAVNKALVVQDIAVISSQL”: -1.69. For the sequence “HMNSLFPLSLKYLREQANITQAELAQKLDVTQQAVGRWERGQTSPDYETLKRLSVLFNVSVDYLLGV”, the “soluble fraction (log2)” value is -1.1.

“HMNSNIIKTINDELSIRKGKYGPYIMYKTKKMKRPKFKSIGDNTPDEFLADKGSISEIILWIN”: the “soluble fraction (log2)” value was -0.527. Take “HMNSSHRLIGLDPGLRVTGWGIVDAIGTKLVHVANGSVKSQQNAPLATRLLELENGLEEVFDNWQPDFA”: the “soluble fraction (log2)” value worked out at 0.034. Take “HMNSVLPQEVKSSLNDFFTKYAPGSIAQKLINHASFTGGKVVVTGVELTQTQADDLKKAFKDKFF”: the “soluble fraction (log2)” value was -0.00219.

For the sequence “HMNSVTLEHIVYDFRVFNMLKGSGINDIDELIKAAEDGRLFKIIGSNLTYKRIKKSAAEFGVILPDKPG”, the “soluble fraction (log2)” value was -2.25. The result for “HMNSVYTPDPKELAKAIKIVTAAREAEQKGQGVIAVDGRMVDAPVVSQALRILELARLAGMEVSE” reads 0.0743; that for “HMNTAIPIAIDQLRIGMYIQLGLNWMSHPFPVSSFRIASESQIEILRGLGLAEVRYVPAKSDPVP”, -3.26; that for “HMNTDEYEQKRGEILDAAQRLIYTKGYERMSIQDILDELKISKGAFYHYFDSKQSLLEALTARMMTE”, -0.44. The result for “HMNTDIHRLLDEAFVRVDMTPDAQHLKEEIRANLVARVDELEASGVPSADAARRAIAELGDVRELL” reads 0.291; that for “HMNTFDLSKLEEIILASRDKAMKTKEFTELDNLKNLFITAGLDVQMSKNGIKLIKGPKFNSSLLEDF”, -0.878; that for “HMNTIIIDILPKGLSIAGNQTEPKSLIQQLLMARRADPAQPILLRPAIAVPVQNVVELIDRLTAAGI”, -0.306. The same measure for “HMNTISEADAKRIALERAGLTAADYVKVDYDQDDNEYEVEMRSGNTEYEVKISGSTGAVLEYDSETD”: -0.358; for “HMNTISTLEITTKKDIRILDESELLKSKSSKNNIFNYLLASGDFNLLKDKLNEIDEFSDEIISYQLN”: -0.788; for “HMNTKQRTAVMRILKQSSDPVSADDVFAALKDEYPSLALSTVYRNLERFADESMVKKDVWSDGIVRYSLAD”: -0.21. On to “HMNTLGTNIAKLRESQKLTQEELGKLSGVSRVSIYKIETGQSTPRDTTLQNIAEALHTTPSALRS”, for which the “soluble fraction (log2)” value is 0.0781.

Regarding “HMNTLLYAPKVSPNPFTPNADGINDVVNISYKLLRVISAVPISVEVFDLSGRLIKTLYSGVDPLGEY”, the “soluble fraction (log2)” value amounted to 0.194. Regarding “HMNTLPASVQPKKGRLYAVIQTKENGKSKPVWRSLGLPEGSNKSKVNKAFREVVKQFEEEYAERLAR”, the “soluble fraction (log2)” value was -0.181. The result for “HMNTLPTDELMKYGIINEDLSFSKKLNADDIQKFLQGYTIVADNDKNRATFQLTENNTKLKVIFLER” reads -0.44; that for “HMNTLRFPEGTPEKDRMSIILASYNSGIGHVNDARRLARLNGEDPNSWEVVARYLQLKAQPEYYESEAVK”, -0.204. The same measure for “HMNTPAENFDKAVEKYKSTNSATEKDAAFKVIEDEWIKLSDEEKKERQDEYDSIFESEGDRV”: 0.0843; for “HMNTQGWEIFEGRITTADTDLNPSGWIRIDGQRIFVISDAGFIDKGKEVSILSVDGNRVLVRK”: -0.646; for “HMNTSMIEHMDKSTFIRFVFTNPVTHDQAVAKLMEKHMWFSTEEKAEAEIDKLLNKTNSLIESGGKLTW”: 0.0867. In the case of “HMNTTLQLDTILRLEKNAHLLENFVRAGFTDSELGKLTDADLLQIGVPKIGDRRRLLAALAERAH”, the “soluble fraction (log2)” value was -0.904. The same measure for “HMNTVSPAVSAQLRQELGGELNNANFQQLQQYLQAGQRDEAIVYLTSLGIESPRAVSIVNNAMDQIG”: 0.494; for “HMNVDIVEITKNSSPNQISKVIDIGAIQIVEDLMSFGIMKAIDTPLEDSEIEQLLEKYNLIVDLIE”: -2.01.

Consider “HMNVDSIPGKSGIVTQGIDNLKAMGRVTVNGMEWTARSKDGSLIEEGKVVRVYGVEGVKLIVEED”, for which the “soluble fraction (log2)” value turned out to be 0.0811.

For the sequence “HMNVDSLPGEKAVVIKTIDNLRGTGQAVVNGLEWSAKSKDETIIDEGKVVRIVAVEGVKLVVEEE”, the “soluble fraction (log2)” value was found to be 0.0298. The result for “HMNVEALIGREGRVTDKIEANGYGRVKVDGDSWKAKSANGAEIRQNTDVRILSIDSVIITVEP” reads -0.766; that for “HMNVESLVGKQVIVSETIDNLKATGQVKVNGLEWTARAADETDIIPQGTEVTINEVSGVKLIVSR”, 0.0398. Turning to “HMNVESMVGKQGKVVVEIDNISAKGMIKVDGMEWTARSVDGEIIPKDSLVAVVSVEGVKAMVRKAE”, the “soluble fraction (log2)” value is -0.106. The same measure for “HMNVGKRLKSLREKYKFSLEEVAKKIKSSAGAISRYENNERKINSESLIRLSNLYNVSPEYILYG”: -0.621. Take “HMNVKQALLELMQRKPELTGSAIARAIGYSPAVISQYLKDGYPGDVVKLTTLIGDFIRRIDEKERS”: the “soluble fraction (log2)” value was -0.526. The result for “HMNVKVYATIDGDNFKVSGLKPGSNVRVYSSNGSAVFEKKAGDSEMIIPAGAWTKGIYVISADDQSIKVT” reads -0.0855.

With “HMNVLGQTAIVRSLRLDATFGEVLLADGGAGLIFKARTHGDETFKKGDRVVLLEYLKDQHAYRVISETDFL”, the “soluble fraction (log2)” value was -2.45. With “HMNVLLGISELSHATGVTPAQLRYWVSQGYIKNYGSNKKNKFSLETVFMVRSIKIFQNQGYTLSASAKRAA”, the “soluble fraction (log2)” value is -1.38. The result for “HMNVNFVQANLANLPNIQAIYQKGNEMLNDMKRGEAREIDEAYSRVDNGVGTEKDFKVLLSFRDKIIAAMQ” reads -0.112; that for “HMNVNSMIGKEGRVIEDIDNFNETGRIIVDGMEWTARAVNEQSITSGQKVVIREIQGVKAMVVPM”, 0.115; that for “HMNVNTNTILKSLMETYPDSTVFKKAEIVSIANSLGFKKSDYSPLTSTDNRTDVRGQYDLSAVIIPMRESN”, -0.14.

Regarding “HMNVPYEMVTQNGEVFYKYKVQPGEGVFAVSRTFSVSVAEILRVNPEANKGLKNGQVLLIPVPKDMIA”, the “soluble fraction (log2)” value is -1.71. Turning to “HMNVVGAKGRIIKISSSEEKMAVAEIEGHGEWNIRTNSEIELFVGKSVEVIEMKGNYLLVNQI”, the “soluble fraction (log2)” value was -3.01. As for “HMNVWESVDLRQEQHEAKRRLILKQAALLFADRGFHETTIDQIAEALNVTKPTIYYYIESKEDLLYQVA”, the “soluble fraction (log2)” value is -0.135.

With “HMNWQLITDPKELRELVQKTIADNEAGTSRLREGDMGPLEFLTGIIMKKTRGLADPTMVKALLKEELNI”, the “soluble fraction (log2)” value is -0.0208. As for “HMNYEFLEKIGFSSNEAKVYGTLIKHKVLNGYEIAKLSGVARSLVYEVINRLVAKGAVIRIDGEPNFYKP”, the “soluble fraction (log2)” value was -2.2. For the sequence “HMNYHDTLSYLMDAFGGADNLQKLLGVGPSALSNYRRREHLPLNQARKLSNIAPEFGFNLDPYTLKISVID”, the “soluble fraction (log2)” value was -1.62. As to “HMNYKLESYLKKVDDQLNFIPVSDKADILSELKNTFYERLLNGQTEEEILDEMESPRELALSYMSES”, the “soluble fraction (log2)” value was -0.00676.

The values above are taken from the domain aggregation screens of Martell et al. (2025).
